The record followed here is the supplement of paper PMC12042874.

± gives the uncertainty stated by the source.

A short description of this data set: amyloid nucleation score (Sup35N fusion, yeast selection) (log enrichment); library NNK1; higher = more nucleation; inactive = no reads after selection. The gist of the method:
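Nucleation score: DiMSum log enrichment of output over input reads, centred on the mode score of non-aggregating sequences. Only sequences with at least 100 input reads were kept. Reads came from Illumina sequencing of plasmid inserts before and after 7 days of growth at 30°C without adenine and uracil, in psi-negative yeast expressing Sup35N fused to peptides of 20 random codons after 24 hours of induction with 100 μM copper sulfate.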
Substance MIQRGLVGKDSTHVI returned an amyloid nucleation score of -0.175 ± 0.57.
Turning to MIQVPFKCPCKLTADLGGNW, the amyloid nucleation score entry was “inactive”.
In turn, MIRQFSVSICSTRSVCVHPR returned an amyloid nucleation score of -0.135 ± 0.59.
MITARSLSPRIFRAESAYSE showed an amyloid nucleation score of 0.117 ± 0.36.
The figure for MITWKGLFPAGVGFLRLHA is -0.024 ± 0.43; for MKLNGFVWPG it is -0.256 ± 0.55.
In the case of MKNFPLYSCP, the amyloid nucleation score is -0.66 ± 0.69.
In turn, MKSFSMLPYIIVFRYY had an amyloid nucleation score of 0.823 ± 0.85.
Take MLGDAIMGM: the amyloid nucleation score was 1.09 ± 0.57.
As to MLGYIHAEVHVIVSWNLCLK, the amyloid nucleation score is -0.378 ± 0.53.
The figure for MLIFHTCA is 0.483 ± 1.1; for MLIFNGFTLLVMRVEVAVGS it is 0.066 ± 0.64; for MLLSFLYLV it is 5.26 ± 0.049.
The result for MLNAIRSVGMSTHRSSEGG reads -0.475 ± 0.77; that for MLPMLQPTLQET, 0.313 ± 0.42.
The figure for MLPRPVRPVGGTRWESGVKL is 0.548 ± 0.3; for MLVPRSRIRIPACRFQHRLP it is -0.064 ± 0.35; for MMGWV it is -0.619 ± 0.48.
MMKVIAANRVY came in with an amyloid nucleation score of 0.315 ± 0.63.
Consider MMNVTVKRFRLDQHRLIDCA, for which the amyloid nucleation score turned out to be 0.383 ± 0.34.
With MMSPLKR, the amyloid nucleation score entry is “inactive”.
Substance MMYDGIVSR yielded an amyloid nucleation score of -0.184 ± 0.31.
MNENCGFVKFVRSKKRFKDV: the amyloid nucleation score is -0.287 ± 0.39.
Turning to MNRVDLCVNA, the amyloid nucleation score is 0.438 ± 0.38.
For the substance MNVFRGSVPAFPLPPYMRLA, the amyloid nucleation score was -0.242 ± 0.34.
The substance MPAMTMMWQ returned an amyloid nucleation score of 0.415 ± 0.4.
For MPDYVSFTSRMPLRLKLLLS, the amyloid nucleation score entry is “inactive”.
The result for MPIEYG reads -0.27 ± 0.71; that for MPIVKLTWLYTGVGAKPQVS, 0.211 ± 0.26; that for MPVALKIAILTFWEKSNLCE, 1.27 ± 0.88.
The figure for MQNRCSCWNFECRAPW is 1.06 ± 0.33; for MQTLNCSPNQAHSSIFN it is 0.915 ± 0.97.
For MQVHARFYSFREEDIAGRAR, the amyloid nucleation score was -0.443 ± 0.52.
The figure for MRCSDFELMWFQIDDKYVDN is -0.201 ± 0.17.
MRGAVKVGEMWNHISESRVG gave an amyloid nucleation score of 0.98 ± 0.6.
The result for MRLSCLRRWGSTSVSTG reads -0.305 ± 0.36; that for MRTLWVSKSGIRG, -0.15 ± 0.72.
MSAGIVFIKQFVCS yielded an amyloid nucleation score of 3.25 ± 0.12.
For MSCPRGILGSAIWTYSIGHS, the amyloid nucleation score was -0.232 ± 1.7.
The result for MSFSPLLFVLATFCFGLWCW reads -0.402 ± 0.78; that for MSGFTESRCMGRMVALGPFD, 0.4 ± 1.4.
MSLSDNWGL displayed an amyloid nucleation score of -0.288 ± 0.69.
With MSNKTDEDESIYNRVGVIMG, the amyloid nucleation score was found to be 0.004 ± 0.33.
Take MSRCLIDSIEIFHWTGGRYA: the amyloid nucleation score was -0.386 ± 1.2.
MSSPMRRDAKL registered an amyloid nucleation score of 2.67 ± 0.14.
The figure for MSSRDNFWVSRGAMNYRMGA is -0.325 ± 0.33; for MSYSMVNGDSTF it is 2.33 ± 0.35.
On to MTKFCID, for which the amyloid nucleation score was 0.965 ± 0.66.
The figure for MTRNHFRYTWSVANMWERGF is -0.746 ± 1.3.
Take MVDMLVKMGYRLLGRYISMR: the amyloid nucleation score was 0.942 ± 0.69.
In turn, MVGRNWKTGSIVTLVMFRLE registered an amyloid nucleation score of 0.041 ± 1.1.
Consider MVGSKSGKDGAQASSRKLAF, for which the amyloid nucleation score is 0.708 ± 0.34.
Substance MVKRCVDNFRKWKSVDSSYR showed an amyloid nucleation score of 0.671 ± 0.37.
The substance MVLDLVRRNAQL showed an amyloid nucleation score of -0.151 ± 0.68.
With MVTTPFALTGFRDVMWCRAR, the amyloid nucleation score came to 3.09 ± 0.092.
Substance MVVFRSY had an amyloid nucleation score of -2.07 ± 1.9.
In turn, MVVYFNLPAVMLIDCMMSAI displayed an amyloid nucleation score of 0.708 ± 0.62.
In turn, MVWSQVQLRIGVMVM came in with an amyloid nucleation score of -0.562 ± 0.4.
The figure for MWAIFSLWVCSR is 1.35 ± 0.41; for MWDGGKVNVFTFRAKRPCVG it is -0.215 ± 1.7.
The figure for MWHERVGDVTVAHSNVGVMI is 3.85 ± 0.082; for MWLQHYWTHQAY it is 0.59 ± 0.88.
In turn, MYAFASSKYEHIS came in with an amyloid nucleation score of 0.53 ± 0.32.
The figure for MYEMTG is -0.388 ± 0.19; for MYFFGQYVCYYWEH it is 7.381 ± 0.058.
Take MYIFVDIFAAQLVTRWKGFE: the amyloid nucleation score is -0.97 ± 1.9.
The figure for MYISRFRF is 3.42 ± 0.15; for MYLFICVGSMVNQDVNEMMR it is 3.84 ± 0.084; for MYLVM it is 0.191 ± 0.48.
In the case of MYLVVTVRFNWLPRDQFTVL, the amyloid nucleation score is 0.848 ± 0.37.
The substance MYSLFMSKVRHFCVT had an amyloid nucleation score of 2.09 ± 0.6.
The figure for MYVYVQISYFGLHCVWTMYK is -0.032 ± 0.45; for MYYLRHF it is “inactive”.
The result for NACFSIKQTYWNVT reads 0.537 ± 0.34; that for NALASLKVMILDPTMELCCA, 0.996 ± 0.9; that for NCFVWRRMFKLISFDPYRV, “inactive”.
On to NCHREFIHWVILNSGSSAHM, for which the amyloid nucleation score amounted to 1.94 ± 0.57.
For the substance NCHVT, the amyloid nucleation score was -0.271 ± 0.29.
The figure for NCIPALHEYVCMRR is 0.282 ± 0.54; for NCLVAFYLKGYSCWWRFIIC it is 1.53 ± 0.52.
NCNKSFNLLECGSFGTVGPM showed an amyloid nucleation score of -0.324 ± 0.6.
NCYSRDRSWGLDVVRYVVWW: the amyloid nucleation score was -0.329 ± 1.6.
The figure for NDDSDSVVFSTNGGIYFMHG is -0.177 ± 0.53.
NDGVNPYNMACKMLSCYNSA displayed an amyloid nucleation score of 1.14 ± 0.97.
In turn, NDRTGCVVGLHCEMNI came in with an amyloid nucleation score of 5.961 ± 0.045.
As for NDRVNRNTFSYPWQVAFFRQ, the amyloid nucleation score came out at 4.94 ± 0.064.
NDVTVID registered an amyloid nucleation score of 0.286 ± 0.17.
As to NEAMN, the amyloid nucleation score was -0.21 ± 0.37.
Take NEDLNS: the amyloid nucleation score was found to be 0.194 ± 0.31.
NEECVPHV yielded an amyloid nucleation score of 0.223 ± 0.34.
In turn, NEEGVIQSFILVDALVVQGL returned an amyloid nucleation score of 0.391 ± 0.39.
The result for NEFVDQFSEHFGRVGEFPAW reads -0.316 ± 0.4.
In turn, NEPHWSLLRF returned an amyloid nucleation score of -0.535 ± 0.65.
The figure for NFELLPYLSLNWSHFFCSCF is 6.56 ± 0.061; for NFFCDSISY it is -0.908 ± 1.1; for NFFFRMNIN it is 2.18 ± 0.39.
The substance NFFIWLMVFIGDFFDLVTSA came in with an amyloid nucleation score of -0.94 ± 0.59.
The result for NFKTSKWYESGRASRSS reads -0.076 ± 0.41.
The result for NFLMSKTGLTPHR reads 0.07 ± 0.51; that for NFLNGLMLTSRVRKFLASGY, -0.161 ± 0.6; that for NFLPRTCMLVARFRRKTYLL, 0.879 ± 0.54.
NFPVVW returned an amyloid nucleation score of 0.286 ± 0.28.
The figure for NFSESFLTVNPQTTDVLKLH is -1.18 ± 1.5; for NFYSGICMICLGT it is 7.307 ± 0.065; for NGANMLVCKRFVLVNLYGPA it is 6.02 ± 0.063.
The figure for NGCLFILFCILLFKAQPSIA is 0.057 ± 0.78; for NGCTIVGVTKGSLNH it is 1.04 ± 0.24.
The result for NGFRSVQVLGKGAVMCVNCR reads “inactive”.
With NGGMGSPLDYQRWSDGDQVG, the amyloid nucleation score was -0.365 ± 1.1.
The figure for NGSLLWYVCSSWNVMHDGSV is -1 ± 1.3; for NGSRYLANYSQS it is 0.23 ± 0.36; for NGTGLFNNLWVGSLRLRVTR it is 0.192 ± 0.56.
The figure for NGVRYTVRLFMVLWR is -1.58 ± 2.4; for NGWNYM it is -0.349 ± 1; for NGYRNMSRREQTCLR it is -0.055 ± 0.36.
In the case of NHEKGQRTVTMWLSLKDSMG, the amyloid nucleation score came to 3.02 ± 0.12.
For NHIDGVIGY, the amyloid nucleation score is 0.083 ± 0.61.
Consider NIFVGLLTWLCVKLCMGMFV, for which the amyloid nucleation score is -0.633 ± 0.94.
NIHVSKVGGLGTNLCYARNA showed an amyloid nucleation score of 1.77 ± 0.51.
In the case of NIILSYLYFRTARVISEDRR, the amyloid nucleation score was found to be 4.7 ± 0.081.
The result for NIKANQLKGTWKRRTMYRWS reads -0.271 ± 0.97.
In turn, NILCTLPSIGILSAI had an amyloid nucleation score of -0.249 ± 0.37.
The result for NILPSREYHVAKVAGCATGW reads -0.618 ± 1.4; that for NINPLFI, 1.96 ± 0.26; that for NIVFMCMCGLDI, 0.895 ± 0.29.
The result for NIVIIVVSNLN reads 3.44 ± 0.082; that for NKCKKYGYLFRLSGYEGHNL, 5.54 ± 0.091.
In the case of NKFYCVI, the amyloid nucleation score was -0.927 ± 1.4.
With NKMIKWASQDGCRKVRFSEE, the amyloid nucleation score is -0.427 ± 0.4.
Consider NKYLDSKDWRAFCRSYFNLF, for which the amyloid nucleation score worked out at 0.891 ± 0.14.
The entry for NKYLLNF is “inactive”; for NLCVVREWYSKSCWPRFLRV it is -0.274 ± 0.56; for NLDVYFLVRWLLSCRCACRS it is 0.87 ± 0.62.
Turning to NLFSGNLPRFDFAIQGAFVN, the amyloid nucleation score was -0.447 ± 0.48.
Turning to NLFTDVIHYMVAFLLVYYII, the amyloid nucleation score amounted to 0.682 ± 0.49.
The figure for NLHNRTCWCMYLFDTSWS is 0 ± 0.29.
NLKSSYSAIPLFFIWCGTSV yielded an amyloid nucleation score of 0.114 ± 0.31.
For NLLLYVYKKLCFGFVKECII, the amyloid nucleation score was -0.953 ± 0.57.
Substance NLLQLYDICAGCVRYSRWDG gave an amyloid nucleation score of 1.53 ± 0.16.
Substance NLLVCGVLRNCVSGTMF returned an amyloid nucleation score of 0.312 ± 1.2.
For the substance NLNFLFFQWSNIMVCHQNQV, the amyloid nucleation score is 4.62 ± 0.057.
In turn, NLREDENSGCNCGVDFLGQG came in with an amyloid nucleation score of -0.435 ± 0.4.
